Where two headings read alike, the source gives them in different places.

Results on three molecules are retold here after patent publication US20210315238A1.

In data set [1] the target is wheat gliadin (Sigma, Cat. No. G3375) (wheat). The data set can be described thus: cell-based or functional assay.
Data set [2] has as its system 26-mer peptide.
In data set [3] the test system is 33-mer peptide.
Data set [4] addresses T1, 26-mer peptide.
T1 chain: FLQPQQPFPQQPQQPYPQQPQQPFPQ

For data set [5], the target named is T2, 33-mer peptide.
T2 chain: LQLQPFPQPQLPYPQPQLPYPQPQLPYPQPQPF

Brewers Clarex (enzyme) displayed a Residual Immunogenicity (%) of wheat gliadin, competitive ELISA after protease treatment in data set [1] of 59.7%.
For the molecule Brewers Clarex, in data set [2], the Residual 26-mer peptide (mg/mL) after 0.5 ppm protease, 10 min 40 C, HPLC is 0.65 mg/mL; the Residual 26-mer peptide (mg/mL) after 1 ppm protease, 10 min 40 C, HPLC was found to be 0.46 mg/mL; the Residual 26-mer peptide (mg/mL) after 2 ppm protease, 10 min 40 C, HPLC turned out to be 0.2 mg/mL; the Residual immunogenicity of 26-mer peptide (%), competitive ELISA after protease treatment turned out to be 99.6%. Besides, in data set [3], the Residual 33-mer peptide (mg/mL) after 0.5 ppm protease, 10 min 40 C, HPLC was determined as 0.58 mg/mL; the Residual 33-mer peptide (mg/mL) after 1 ppm protease, 10 min 40 C, HPLC came to 0.39 mg/mL; the Residual 33-mer peptide (mg/mL) after 2 ppm protease, 10 min 40 C, HPLC stood at 0.18 mg/mL; the Residual immunogenicity of 33-mer peptide (%), competitive ELISA after protease treatment worked out at 73.7%.

B1: AflPro3 (protein)
chain: LSFLPGIKANNLQLASVLGIDGHTARFNPEKIAETAISRGSGSEVPARRISIPIDHEDPSMGTYQNRYWVSADFYKPGGPVFVLDAGEGNAYSVAQSYLGGSDNFFAEYLKEFNGLGLVWEHRYYGDSLPFPVNTSTPNEHFKYLTNSQALADLPYFAEKFTLNGTDLSPKSSPWIMLGGSYPGMRAAFTRNEYPDTIFASFAMSAPVEAWVNMTIYFEQVYRGMVANGLGGCAKDLKAINDYIDSQLDKKGQAADAIKTLFLGKEGIHNSNGDFTAALGSIYNLFQSYGVDGGEESLSQLCSYLDKEASPNGIARKIGVKELTEKFAAWPPLLYLINQWGSQVGNGDSNCKGQNNSTETVCELGGQFTDPDTISWTWQYCTEWGYLQADNVGPHSLLSKYQSLEYQQSLCYRQFPGAKESGLLPEHPEANETNAETGGWTIRPSNVFWSAGEFDPWRTLTPLSNETFAPKGVQISTNIPKCGVETPENVLFGYVIPRAEHCFDYDLSYKPADKSRKLFSLALKKWLPCWRSEHAPKGVQRKWM
For B1, in data set [4], the Residual 26-mer peptide (mg/mL) after 0.5 ppm protease, 10 min 40 C, HPLC was determined as 0.38 mg/mL; the Residual 26-mer peptide (mg/mL) after 1 ppm protease, 10 min 40 C, HPLC is 0.17 mg/mL; the Residual 26-mer peptide (mg/mL) after 2 ppm protease, 10 min 40 C, HPLC was 0.05 mg/mL. In data set [5], this molecule had a Residual 33-mer peptide (mg/mL) after 0.5 ppm protease, 10 min 40 C, HPLC of 0.09 mg/mL; a Residual 33-mer peptide (mg/mL) after 1 ppm protease, 10 min 40 C, HPLC of 0.01 mg/mL; a Residual 33-mer peptide (mg/mL) after 2 ppm protease, 10 min 40 C, HPLC of 0.01 mg/mL.
